In US20230312724A1 (KADMON, published 2023):
Like-named read-outs stand apart in the source and are kept apart here. Values belong to the binder of their own block, whether it stands above or below them.

What was measured:
[1] = molecular target: T1, mouse B7-H4 expressed on cells (mouse, UniProt Q7TSP5 25-257); test: flow cytometry, CHO cells expressing mB7-H4
T1 construct: also called cellular mB7-H4; mB7-H4/CT26
T1 sequence: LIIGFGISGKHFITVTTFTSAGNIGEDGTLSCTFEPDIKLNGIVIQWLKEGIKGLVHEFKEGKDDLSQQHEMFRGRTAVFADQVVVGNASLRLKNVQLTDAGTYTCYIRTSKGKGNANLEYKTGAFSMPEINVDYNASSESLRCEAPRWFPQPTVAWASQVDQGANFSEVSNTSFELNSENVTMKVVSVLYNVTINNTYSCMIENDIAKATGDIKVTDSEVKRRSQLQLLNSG
Protocol: (§1) ELISA experiments were performed to determine binding to hB7-H4-Fc (FIG. 5A), hB7-H4-his (FIG. 5B), mB7-H4-Fc domain (FIG. 5C), hB7-H4 IgV domain (FIG. 5D), and hB7-H4 IgC domain (FIG. 5E). Flow cytrometry experiments were performed to determine binding to CHO cells expressing hB7-H4 (FIG. 5F) or mB7-H4 (FIG. 5G). […] A cross-reactive IgV binding antibody and an IgC binding antibody were used as controls.
(§2) Cells were harvested, washed once, and then re-suspended to the concentration of 1×10⁶ cells/ml in ice cold FACS Buffer. 25 μl of cell suspension was added to each well of a 96-well round-bottom microliter plate. Serially diluted antibodies or fusion proteins were added to each well and incubated for 1 hour at 4° C. Cells were washed three times by centrifugation at 1500 rpm for 5 minutes, and then stained with secondary antibody (1:200 dilution) for 30 min at 4° C. in the dark. Cells were washed once, re-suspended in 100 μl PBS buffer and then analyzed using Guava Flow Cytometry EasyCyte system.

[2] = molecular target: T2, mouse B7-H4-Fc (mouse; human); test: ELISA, coated mB7-H4-Fc
T2 construct: also called mB7-H4-Fc; mB7-H4-hFc
T2 sequence (chain, as listed by the source): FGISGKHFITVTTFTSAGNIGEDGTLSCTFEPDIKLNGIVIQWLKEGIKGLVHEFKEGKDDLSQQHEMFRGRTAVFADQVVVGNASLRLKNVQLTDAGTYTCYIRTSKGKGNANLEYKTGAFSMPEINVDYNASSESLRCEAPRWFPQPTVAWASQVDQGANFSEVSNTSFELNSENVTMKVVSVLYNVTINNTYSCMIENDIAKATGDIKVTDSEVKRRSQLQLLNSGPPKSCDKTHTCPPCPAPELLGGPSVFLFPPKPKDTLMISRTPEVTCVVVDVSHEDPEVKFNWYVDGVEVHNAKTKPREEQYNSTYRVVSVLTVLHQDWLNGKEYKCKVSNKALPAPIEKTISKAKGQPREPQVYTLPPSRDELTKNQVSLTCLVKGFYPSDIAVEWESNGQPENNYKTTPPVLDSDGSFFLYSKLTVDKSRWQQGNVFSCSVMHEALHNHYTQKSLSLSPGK
Protocol: as §1
(§3) About 1-2 μg/ml of human or mouse B7-H4-Fc (or his-tagged) was immobilized on ELISA plates (Immuno 2HB, Thermo scientific, cat #3455) at 4° C. overnight. After blocking the plates with 3% PBS+milk, serial diluted antibodies were added to the blocked plates and incubated at RT for 1-1.5 h. After washing the plates with PBS-T (0.05%), horse radish peroxidase (HRP)-conjugated antibody targeting the hFab was added to the plate. Signals were developed by adding 3,3′,5,5′-Tetramethylbenzidine (TMB (followed 1N of H₂SO₄ to stop the reaction. The OD at 450 nm was read by ELISA plate reader (Infinite M1000 from TECAN). GraphPad from Prism was used to plot OD450 vs. antibody concentration curve and to calculate the EC50 values.

[3] = molecular target: T3, human B7-H4-Fc (human); test: ELISA, coated hB7-H4-Fc
T3 construct: also called hB7-H4-Fc; hB7-H4 Fc
T3 sequence (chain, as listed by the source): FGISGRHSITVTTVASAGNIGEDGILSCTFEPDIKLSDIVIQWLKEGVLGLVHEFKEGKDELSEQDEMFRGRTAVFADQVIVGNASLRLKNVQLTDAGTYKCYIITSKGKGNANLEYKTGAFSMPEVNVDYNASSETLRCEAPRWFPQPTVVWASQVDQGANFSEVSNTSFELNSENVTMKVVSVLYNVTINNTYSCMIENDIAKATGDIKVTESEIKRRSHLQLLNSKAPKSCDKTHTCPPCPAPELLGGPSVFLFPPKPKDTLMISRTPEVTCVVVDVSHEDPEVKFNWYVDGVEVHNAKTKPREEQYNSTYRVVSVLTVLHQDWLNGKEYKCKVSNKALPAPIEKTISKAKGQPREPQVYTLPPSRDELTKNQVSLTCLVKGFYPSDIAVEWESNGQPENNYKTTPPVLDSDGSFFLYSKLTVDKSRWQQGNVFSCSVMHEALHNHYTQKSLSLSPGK
Protocol: as §1, §3

[4] = molecular target: T4, mB7-H4 (soluble mouse B7-H4, construct not named) (mouse, UniProt Q7TSP5 25-257, limits assumed); test: summary of ELISA and flow cytometry
T4 sequence: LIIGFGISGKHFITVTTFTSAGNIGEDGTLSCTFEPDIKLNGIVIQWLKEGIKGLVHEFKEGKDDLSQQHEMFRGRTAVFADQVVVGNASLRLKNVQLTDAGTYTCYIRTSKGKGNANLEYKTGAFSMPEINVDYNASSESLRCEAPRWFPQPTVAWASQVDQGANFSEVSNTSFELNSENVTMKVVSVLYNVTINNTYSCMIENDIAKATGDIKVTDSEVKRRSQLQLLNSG

[5] = molecular target: T5, human B7-H4-his (human, UniProt Q7Z7D3 25-259); test: ELISA, coated hB7-H4-his
T5 construct: also called hB7-H4-his; hB7-H4 his; not shown: his tag
T5 sequence: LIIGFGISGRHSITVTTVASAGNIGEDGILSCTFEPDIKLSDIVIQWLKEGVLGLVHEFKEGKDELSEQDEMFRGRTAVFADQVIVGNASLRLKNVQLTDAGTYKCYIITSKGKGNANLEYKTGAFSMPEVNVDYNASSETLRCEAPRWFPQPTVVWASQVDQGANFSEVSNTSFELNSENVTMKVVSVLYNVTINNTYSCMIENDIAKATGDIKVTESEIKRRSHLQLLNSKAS
Protocol: as §3

[6] = molecular target: T6, IgV domain of human B7-H4-Fc (human); test: ELISA, coated hB7-H4 IgV domain
T6 construct: also called hB7-H4 IgV domain
T6 sequence (chain, as listed by the source): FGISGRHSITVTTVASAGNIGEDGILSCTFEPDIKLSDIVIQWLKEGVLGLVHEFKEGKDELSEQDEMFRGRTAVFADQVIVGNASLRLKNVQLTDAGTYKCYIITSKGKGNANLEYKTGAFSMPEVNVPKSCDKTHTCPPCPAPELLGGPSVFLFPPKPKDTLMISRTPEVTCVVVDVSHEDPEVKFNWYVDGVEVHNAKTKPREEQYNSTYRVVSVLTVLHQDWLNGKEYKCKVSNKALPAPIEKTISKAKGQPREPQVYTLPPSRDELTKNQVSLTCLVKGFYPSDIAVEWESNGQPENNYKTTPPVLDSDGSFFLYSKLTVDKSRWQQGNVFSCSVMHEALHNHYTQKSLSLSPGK
Protocol: as §1, §3

[7] = molecular target: T7, IgC domain of human B7-H4-Fc (human); test: ELISA, coated hB7-H4 IgC domain
T7 construct: also called hB7-H4 IgC domain
T7 sequence (chain, as listed by the source): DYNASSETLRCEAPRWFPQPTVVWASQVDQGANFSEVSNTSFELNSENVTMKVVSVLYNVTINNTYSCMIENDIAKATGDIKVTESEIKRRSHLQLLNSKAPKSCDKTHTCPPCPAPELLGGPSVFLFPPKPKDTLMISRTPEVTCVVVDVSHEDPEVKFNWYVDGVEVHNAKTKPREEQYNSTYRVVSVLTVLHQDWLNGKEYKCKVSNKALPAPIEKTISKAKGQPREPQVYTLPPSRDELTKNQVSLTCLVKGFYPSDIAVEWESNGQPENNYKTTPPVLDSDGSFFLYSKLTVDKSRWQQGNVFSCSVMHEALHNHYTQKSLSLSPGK
Protocol: as §1, §3

[8] = molecular target: T2, mouse B7-H4-Fc; test: ELISA, coated mB7-H4-Fc (title on the sheet: Binding to mB7H4-Fc)
Protocol: (§4) ELISA experiments were performed to determine binding to hB7-H4-Fc (FIG. 4A), hB7-H4-his (FIG. 4B), hB7-H4 IgV domain (FIG. 4C), and mB7-H4 IgV domain (FIG. 4D). Flow cytrometry experiments were performed to determine binding to CHO cells expressing hB7-H4 (FIG. 4E) or mB7-H4 (FIG. 4F). […] A cross-reactive IgV binding antibody was used as a control.
as §3

[9] = molecular target: T3, human B7-H4-Fc; test: ELISA, coated hB7-H4-Fc; remark: listed apart in the source
Protocol: as §4, §3

[10] = molecular target: T5, human B7-H4-his; test: SPR (Biacore)
[11] = molecular target: T8, mouse B7-H4-his (mouse, UniProt Q7TSP5 25-257); test: SPR (Biacore)
T8 construct: also called mB7-H4-his; mB7-H4-His; not shown: his tag
T8 sequence: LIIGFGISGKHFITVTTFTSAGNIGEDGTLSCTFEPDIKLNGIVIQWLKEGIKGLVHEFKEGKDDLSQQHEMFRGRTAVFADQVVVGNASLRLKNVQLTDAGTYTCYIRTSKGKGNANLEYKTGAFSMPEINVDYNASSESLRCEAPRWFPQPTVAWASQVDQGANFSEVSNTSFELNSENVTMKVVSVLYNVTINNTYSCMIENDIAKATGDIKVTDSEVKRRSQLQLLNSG

[12] = molecular target: T3, human B7-H4-Fc; test: SPR (Biacore)
[13] = molecular target: T9, IgV domain of mouse B7-H4-Fc (mouse; human); test: ELISA, coated mB7-H4 IgV domain
T9 construct: also called mB7-H4 IgV domain
T9 sequence (chain, as listed by the source): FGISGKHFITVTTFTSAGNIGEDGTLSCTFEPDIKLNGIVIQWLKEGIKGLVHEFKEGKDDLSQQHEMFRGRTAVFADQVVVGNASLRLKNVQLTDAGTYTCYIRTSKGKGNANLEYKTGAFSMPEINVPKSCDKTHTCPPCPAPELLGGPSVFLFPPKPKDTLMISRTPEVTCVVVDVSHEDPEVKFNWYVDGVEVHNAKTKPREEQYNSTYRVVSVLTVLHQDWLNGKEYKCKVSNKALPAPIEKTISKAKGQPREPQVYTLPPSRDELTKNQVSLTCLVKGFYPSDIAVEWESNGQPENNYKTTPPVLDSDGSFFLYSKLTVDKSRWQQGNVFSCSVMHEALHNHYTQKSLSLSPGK
Protocol: as §4, §3

[14] = molecular target: T1, mouse B7-H4 expressed on cells; test: flow cytometry, mB7H4 stable cells (CHO)
Protocol: as §4, §2

[15] = molecular target: T10, hB7-H4 (soluble human B7-H4, construct not named) (human, UniProt Q7Z7D3 25-259, limits assumed); test: SPR (Biacore)
T10 construct: also called soluble hB7-H4
T10 sequence: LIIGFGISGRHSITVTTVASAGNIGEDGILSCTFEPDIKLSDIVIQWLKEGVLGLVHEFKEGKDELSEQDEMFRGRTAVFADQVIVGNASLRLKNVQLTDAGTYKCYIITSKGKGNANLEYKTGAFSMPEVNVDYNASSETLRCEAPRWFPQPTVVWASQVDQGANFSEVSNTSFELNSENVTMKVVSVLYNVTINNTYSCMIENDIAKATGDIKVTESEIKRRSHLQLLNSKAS

[16] = molecular target: T7, IgC domain of human B7-H4-Fc; test: ELISA, coated hB7-H4 IgC domain; remark: listed apart in the source
[17] = molecular target: T11, IgC domain of mouse B7-H4-Fc (mouse; human); test: ELISA, coated mB7-H4 IgC domain
T11 construct: also called mB7-H4 IgC domain
T11 sequence (chain, as listed by the source): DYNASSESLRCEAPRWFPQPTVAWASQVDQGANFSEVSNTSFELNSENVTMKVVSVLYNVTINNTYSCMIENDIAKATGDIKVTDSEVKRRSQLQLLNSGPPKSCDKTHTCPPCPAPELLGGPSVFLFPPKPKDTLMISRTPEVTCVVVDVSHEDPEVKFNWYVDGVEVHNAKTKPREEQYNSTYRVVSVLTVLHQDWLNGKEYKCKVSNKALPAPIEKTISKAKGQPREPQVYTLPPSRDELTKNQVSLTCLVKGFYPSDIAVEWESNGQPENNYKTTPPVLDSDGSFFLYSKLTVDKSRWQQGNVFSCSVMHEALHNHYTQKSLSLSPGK

[18] = molecular target: T5, human B7-H4-his; test: SPR (Biacore); remark: listed apart in the source
In short: (§5)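 Ligands (human B7-H4-Fc, human B7-H4-his, mouse B7-H4-Fc) were amine-coupled to CM5 chips at 50-100 RU. Analyte was injected at 100 nM to 0.1 nM in HBS-EP, pH 7.4, at 25 °C, with 180 s association and 1000 or 1200 s dissociation. Kinetics were fitted to a 1:1 Langmuir model.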

[19] = molecular target: T3, human B7-H4-Fc; test: SPR (Biacore); remark: listed apart in the source
In short: as §5

[20] = molecular target: T10, hB7-H4 (soluble human B7-H4, construct …); test: SPR (Biacore); remark: listed apart in the source
In short: as §5

[21] = molecular target: T12, human B7-H4 expressed on cells (human, UniProt Q7Z7D3 25-282); test: flow cytometry, MDA-MB-468 cells
T12 construct: Transfected CHO cells or tumor cell lines that carry hB7-H4; also called cellular hB7-H4
T12 sequence: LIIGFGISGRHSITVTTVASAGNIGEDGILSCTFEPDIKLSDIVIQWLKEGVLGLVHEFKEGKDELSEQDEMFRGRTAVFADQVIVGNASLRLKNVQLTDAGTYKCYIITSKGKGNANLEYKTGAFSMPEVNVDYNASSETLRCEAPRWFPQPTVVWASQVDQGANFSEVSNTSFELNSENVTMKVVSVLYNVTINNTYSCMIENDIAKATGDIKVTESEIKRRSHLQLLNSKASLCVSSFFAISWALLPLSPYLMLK
Protocol: as §2

[22] = molecular target: T3, human B7-H4-Fc; test: ELISA on coated hB7-H4-Fc
Protocol: as §3

[23] = molecular target: T12, human B7-H4 expressed on cells; test: flow cytometry, SK-BR-3 cells
In short: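 Serially diluted antibodies or fusion proteins were incubated with cells at 1×10⁶ cells/ml in ice-cold FACS buffer for 1 h at 4 °C. After three washes, bound protein was detected with a 1:200 secondary antibody, 30 min at 4 °C in the dark, and read by flow cytometry.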

[24] = molecular target: T6, IgV domain of human B7-H4-Fc; test: ELISA, coated hB7-H4 IgV domain; remark: listed apart in the source
[25] = molecular target: T2, mouse B7-H4-Fc; test: ELISA on coated mB7-H4-Fc
Protocol: as §3

[26] = molecular target: T10, hB7-H4 (soluble human B7-H4, construct …); test: ELISA, hB7-H4
In short: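 Human or mouse B7-H4-Fc (or His-tagged) at about 1-2 μg/ml was coated overnight at 4° C and blocked with 3% milk. Serially diluted antibodies were added for 1-1.5 h at RT and detected with HRP anti-human Fab and TMB, reading OD450. EC50 was obtained from the OD450 vs. concentration curve.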

[27] = molecular target: T10, hB7-H4 (soluble human B7-H4, construct …); test: ELISA, hB7-H4; remark: listed apart in the source
Protocol: as §3

[28] = molecular target: T12, human B7-H4 expressed on cells; test: flow cytometry, MX-1 cells
Protocol: as §2

[29] = molecular target: T12, human B7-H4 expressed on cells; test: flow cytometry, SK-BR-3 cells; remark: listed apart in the source
[30] = molecular target: T6, IgV domain of human B7-H4-Fc; test: ELISA on coated IgV domain of hB7-H4
Protocol: as §3

[31] = molecular target: T1, mouse B7-H4 expressed on cells; test: flow cytometry, CT26 cells expressing mB7-H4
[32] = molecular target: T9, IgV domain of mouse B7-H4-Fc; test: ELISA, coated mB7-H4 IgV domain; remark: listed apart in the source
[33] = molecular target: T8, mouse B7-H4-his; test: ELISA on coated mB7-H4-his
Protocol: as §3

[34] = molecular target: T5, human B7-H4-his; test: ELISA on coated hB7-H4-his
Protocol: as §3

binding result [2]: no binding (tested: log 1 nM (10 nM))
EC50 (read off the curve) [3]: ~70 pM
binding result [4]: no binding
EC50 (read off the curve) [5]: ~60 pM
EC50 (read off the curve) [6]: ~70 pM
B1: 9H2/9H2 (antibody, V domains shown)
VH: QVQLVQSGAEVKKPGSSVKVSCKASGGTFSTYAINWVRQAPGQGLEWMGGINPMFGTARYAQKFQGRVTITADESTSTAYMELSSLRSEDTAVYYCARGRLHRHWGQGTLVTVSS
VL: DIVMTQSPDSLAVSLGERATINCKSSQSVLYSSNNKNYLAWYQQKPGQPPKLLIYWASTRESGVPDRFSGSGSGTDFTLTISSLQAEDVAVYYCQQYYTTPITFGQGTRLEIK
binding result [1]: no binding (tested: log 2.3 nM (about 200 nM))
binding result [7]: no binding (tested: log 0.3 ug/ml (about 2 ug/ml))

EC50 (read off the curve) [9]: ~0.01 µg/mL
Kd [10]: 4000 pM
binding result [11]: no binding
Kd [12]: 2860 pM
binding result [4]: no binding
binding result [13]: no binding
binding result [14]: no binding
B2: 4H6/4H6 (antibody, human IgG1, V domains shown)
VH: EVQLLESGGGLVQPGGSLRLSCAASGFTFSSYGMHWVRQAPGKGLEWVSGISGSGGSTYYADSVKGRFTISRDNSKNTLYLQMNSLRAEDTAVYYCARTQWRASLDPWGQGTLVNVSS
VL: DIQMTQSPSSLSASVGDRVTITCRASQDISYWLAWYQQKPGKAPKLLIYGASTLQSGVPSRFSGSGSGTDFTLTISSLQPEDFATYYCQQTTMSPYTFGQGTKVEIK
binding result [8]: no binding (tested: log 0.3 ug/ml (about 2 ug/ml))

Kd [15]: 45.4 pM
binding result [16]: no binding (tested: log 1 nM (10 nM))
binding result [17]: no binding (tested: log 1 nM (10 nM))
Kd [18]: 15.5 pM
Kd [19]: 43.3 pM
Kd [20]: 38.5 pM
EC50 [21]: 416 pM
EC50 (read off the curve) [22]: ~70 pM
EC50 [23]: 410 pM
EC50 (read off the curve) [24]: ~100 pM
binding result [25]: no binding (tested: 10 nM)
EC50 [26]: 46 pM
EC50 [27]: 82 pM
EC50 [28]: 120 pM
EC50 [29]: 1180 pM
EC50 (read off the curve) [30]: ~80 pM
binding result [31]: no binding (tested: log 2 nM (100 nM))
binding result [32]: no binding (tested: log 1 nM (10 nM))
binding result [33]: no binding (tested: 10 nM)
EC50 (read off the curve) [34]: ~100 pM
B3: 3F2/50A10 (antibody, human IgG1, V domains shown)
VH: QVQLVQSGAEVKKPGASVKVSCKASGYTFTAQYMYWVRQAPGQGLEWMGRINPTSGNTVYAQKLQGRVTMTRDTSTSTVYMELSSLRSEDTAVYYCARGINWFDPWGQGTLVTVSS
VL: DIQMTQSPSSLSASVGDRVTITCQASQDISNYINWYQQKPGKAPKLLIYAASRLQSGVPSRFSGSGSGTDFTLTISSLQPEDFATYYCQQSYRSPFTFGQGTKLEIK
